PMC4015189 (Cell, 2014)

B1: NuMA-bonsai-tail II-GFP (other, human, UniProt Q14980 1-400, looked up)
chain: MTLHATRGAALLSWVNSLHVADPVEAVLQLQDCSIFIKIIDRIHGTEEGQQILKQPVSERLDFVCSFLQKNRKHPSSPECLVSAQKVLEGSELELAKMTMLLLYHSTMSSKSPRDWEQFEYKIQAELAVILKFVLDHEDGLNLNEDLENFLQKAPVPSTCSSTFPEELSPPSHQAKREIRFLELQKVASSSSGNNFLSGSPASPMGDILQTPQFQMRRLKKQLADERSNRDELELELAENRKLLTEKDAQIAMMQQRIDRLALLNEKQAASPLEPKELEELRDKNESLTMRLHETLKQCQDLKTEKSQMDRKINQLSEENGDLSFKLREFASHLQQLQDALNELTEEHSKATQEWLEKQAQLEKELSAALQDKKCLEEKNEILQGKLSQLEEHLSQLQDNSALLSLPGYRPTTRSSARRSQAGVSSGAPPGRNSFYMGTCQDEPEQLDDWNRIAELQQRNRVCPPHLKTCYPLESRPSLSLGTITDEEMKTGDPQETLRRASMQPIQIAEGTGITTRQQRKRVSLEPHQGPGTPESKKATSCFPRPMTPRDRHEGRKQSTTEAQKKAAPASTKQADRRQSMAFSILNTPKKLGNSLLRRGASKKALSKASPNTRSGTRRSPRIA
B2: NuMA NTD (domain or fragment, human, UniProt Q14980 1-400, looked up)
chain: MTLHATRGAALLSWVNSLHVADPVEAVLQLQDCSIFIKIIDRIHGTEEGQQILKQPVSERLDFVCSFLQKNRKHPSSPECLVSAQKVLEGSELELAKMTMLLLYHSTMSSKSPRDWEQFEYKIQAELAVILKFVLDHEDGLNLNEDLENFLQKAPVPSTCSSTFPEELSPPSHQAKREIRFLELQKVASSSSGNNFLSGSPASPMGDILQTPQFQMRRLKKQLADERSNRDELELELAENRKLLTEKDAQIAMMQQRIDRLALLNEKQAASPLEPKELEELRDKNESLTMRLHETLKQCQDLKTEKSQMDRKINQLSEENGDLSFKLREFASHLQQLQDALNELTEEHSKATQEWLEKQAQLEKELSAALQDKKCLEEKNEILQGKLSQLEEHLSQLQDN
B3: EB1-GFP (natural protein, human, UniProt Q15691 1-268, looked up)
chain: MAVNVYSTSVTSDNLSRHDMLAWINESLQLNLTKIEQLCSGAAYCQFMDMLFPGSIALKKVKFQAKLEHEYIQNFKILQAGFKRMGVDKIIPVDKLVKGKFQDNFEFVQWFKKFFDANYDGKDYDPVAARQGQETAVAPSLVAPALNKPKKPLTSSSAAPQRPISTQRTAAAPKAGPGVVRKNPGVGNGDDEAAELMQQVNVLKLTVEDLEKERDFYFGKLRNIELICQENEGENDPVLQRIVDILYATDEGFVIPDEGGPQEEQEEY
B4: NuMA-tail II-GFP (domain or fragment, human, UniProt Q14980 1868-2091, looked up)
chain: SALLSLPGYRPTTRSSARRSQAGVSSGAPPGRNSFYMGTCQDEPEQLDDWNRIAELQQRNRVCPPHLKTCYPLESRPSLSLGTITDEEMKTGDPQETLRRASMQPIQIAEGTGITTRQQRKRVSLEPHQGPGTPESKKATSCFPRPMTPRDRHEGRKQSTTEAQKKAAPASTKQADRRQSMAFSILNTPKKLGNSLLRRGASKKALSKASPNTRSGTRRSPRIA

Columns and labels:
[1] = target: microtubules; test: single-molecule TIRF microscopy
[2] = target: the molecule itself; test: SEC
[3] = target: the molecule itself; test: light scattering

| Binder | binding lifetime [1] [s] | stoichiometry N [2] | stoichiometry N [3] |
| --- | --- | --- | --- |
| B1 | 3.6 ± 0.2 | 2 |  |
| B2 |  |  | 2 |
| B3 | 1.2 ± 0.2 |  |  |
| B4 | 2.8 ± 0.2 |  |  |
